pKd: −log10 of the molar value.
Target: MA-MADS5 full length (A) (Musa acuminata (AAA group, Cavendish subgroup, cv. Giant governor)) (UniProt E9NW24)
Assay: EMSA saturation
Conditions: EMSA with 2 ug recombinant protein or 15 ug nuclear extract, buffer by reference to earlier work; circularization pre-incubation: 60 mM KCl, 8 mM HEPES pH 7.9 …

Chain of MA-MADS5 full length (A) (Musa acuminata (AAA group, Cavendish subgroup, cv. Giant governor)) (E9NW24 entry or part of it): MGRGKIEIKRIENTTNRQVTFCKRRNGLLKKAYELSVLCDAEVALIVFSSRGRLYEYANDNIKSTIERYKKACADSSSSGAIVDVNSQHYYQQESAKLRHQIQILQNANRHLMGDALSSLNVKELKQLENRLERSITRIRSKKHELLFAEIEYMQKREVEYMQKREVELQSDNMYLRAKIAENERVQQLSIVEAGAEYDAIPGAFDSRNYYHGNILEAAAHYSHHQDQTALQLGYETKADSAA

## c-fos SRE, pAS76 EcoRV fragment
  pKd: 7.97
